The text below walks through data of paper PMC4658161, “Mutually Exclusive Roles of SHARPIN in Integrin Inactivation and NF-κB Signaling” (PLoS ONE, 2015).

The experiment concerns the target T1, recombinant full-length human ITGAL-ITGB2 (human, UniProt P20701 26-1170; P05107 23-769).
T1 construct: integrin alpha L (ITGAL), human, full-length; integrin beta 2 (ITGB2), human, full-length; also called full-length ITGAL-ITGB2; LFA-1; source: bought: Origene
Kind of experiment: far-Western; GST-SHARPIN (WT, fragments or point mutants) with recombinant full-length ITGAL-ITGB2 or recombinant RNF31; which partner was on the membrane is not told; performed as described in ref. 5. The note with it: both partners purified.

T1 sequence (P20701 26-1170, chain 1 of 2): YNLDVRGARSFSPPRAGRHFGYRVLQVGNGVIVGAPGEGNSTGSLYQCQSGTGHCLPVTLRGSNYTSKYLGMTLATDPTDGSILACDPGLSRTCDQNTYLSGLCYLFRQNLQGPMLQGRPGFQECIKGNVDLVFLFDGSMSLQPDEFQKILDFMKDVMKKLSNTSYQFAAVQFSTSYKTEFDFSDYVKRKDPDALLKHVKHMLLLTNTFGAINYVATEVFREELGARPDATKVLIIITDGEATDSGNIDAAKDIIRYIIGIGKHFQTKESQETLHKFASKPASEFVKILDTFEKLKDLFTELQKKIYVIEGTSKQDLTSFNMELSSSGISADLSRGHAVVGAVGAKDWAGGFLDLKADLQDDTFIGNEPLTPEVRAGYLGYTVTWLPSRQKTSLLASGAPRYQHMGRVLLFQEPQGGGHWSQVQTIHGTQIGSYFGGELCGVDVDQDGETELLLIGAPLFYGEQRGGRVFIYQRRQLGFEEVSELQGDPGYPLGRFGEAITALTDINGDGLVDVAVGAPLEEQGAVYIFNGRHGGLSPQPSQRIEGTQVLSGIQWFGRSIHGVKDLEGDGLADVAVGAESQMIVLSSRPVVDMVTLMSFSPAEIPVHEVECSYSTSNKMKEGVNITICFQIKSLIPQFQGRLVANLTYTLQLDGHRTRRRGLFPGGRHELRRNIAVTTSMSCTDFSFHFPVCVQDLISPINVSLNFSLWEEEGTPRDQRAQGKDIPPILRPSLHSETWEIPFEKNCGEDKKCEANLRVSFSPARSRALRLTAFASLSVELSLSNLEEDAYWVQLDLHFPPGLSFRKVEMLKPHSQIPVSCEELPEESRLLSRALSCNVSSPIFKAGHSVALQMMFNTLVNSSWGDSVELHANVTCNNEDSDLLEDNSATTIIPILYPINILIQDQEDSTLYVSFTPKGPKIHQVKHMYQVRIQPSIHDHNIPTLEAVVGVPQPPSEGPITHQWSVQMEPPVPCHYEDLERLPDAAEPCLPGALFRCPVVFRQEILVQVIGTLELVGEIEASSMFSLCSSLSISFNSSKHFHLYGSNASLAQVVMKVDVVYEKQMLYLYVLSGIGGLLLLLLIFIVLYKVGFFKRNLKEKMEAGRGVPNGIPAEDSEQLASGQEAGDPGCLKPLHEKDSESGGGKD
T1 sequence (P05107 23-769, chain 2 of 2): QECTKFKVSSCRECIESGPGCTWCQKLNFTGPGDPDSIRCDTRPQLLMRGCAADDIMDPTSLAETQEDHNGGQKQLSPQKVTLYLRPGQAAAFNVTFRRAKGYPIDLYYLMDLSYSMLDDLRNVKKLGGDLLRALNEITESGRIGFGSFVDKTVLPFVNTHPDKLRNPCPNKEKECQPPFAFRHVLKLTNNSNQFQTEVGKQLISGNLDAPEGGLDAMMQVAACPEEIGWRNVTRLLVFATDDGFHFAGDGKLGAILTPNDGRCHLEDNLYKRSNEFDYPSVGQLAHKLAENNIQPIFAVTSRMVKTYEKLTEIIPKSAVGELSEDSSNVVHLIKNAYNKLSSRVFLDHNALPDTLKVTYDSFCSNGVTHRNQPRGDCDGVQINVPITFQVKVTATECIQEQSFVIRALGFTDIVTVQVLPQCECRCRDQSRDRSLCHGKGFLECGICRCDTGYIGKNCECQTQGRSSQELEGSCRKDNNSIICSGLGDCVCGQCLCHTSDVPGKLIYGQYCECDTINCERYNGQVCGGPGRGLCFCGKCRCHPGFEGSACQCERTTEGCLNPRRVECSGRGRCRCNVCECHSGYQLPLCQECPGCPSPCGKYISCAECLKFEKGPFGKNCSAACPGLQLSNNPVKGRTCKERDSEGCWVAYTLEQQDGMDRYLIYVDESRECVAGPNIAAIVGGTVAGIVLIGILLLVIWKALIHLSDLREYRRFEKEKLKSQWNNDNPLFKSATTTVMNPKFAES

B1: GST-SHARPIN^WT (natural protein, UniProt Q9H0F6 1-387, looked up)
chain: MAPPAGGAAAAASDLGSAAVLLAVHAAVRPLGAGPDAEAQLRRLQLSADPERPGRFRLELLGAGPGAVNLEWPLESVSYTIRGPTQHELQPPPGGPGTLSLHFLNPQEAQRWAVLVRGATVEGQNGSKSNSPPALGPEACPVSLPSPPEASTLKGPPPEADLPRSPGNLTEREELAGSLARAIAGGDEKGAAQVAAVLAQHRVALSVQLQEACFPPGPIRLQVTLEDAASAASAASSAHVALQVHPHCTVAALQEQVFSELGFPPAVQRWVIGRCLCVPERSLASYGVRQDGDPAFLYLLSAPREAPATGPSPQHPQKMDGELGRLFPPSLGLPPGPQPAASSLPSPLQPSWSCPSCTFINAPDRPGCEMCSTQRPCTWDPLAAAST
notes: also called GST-SHARPIN (full-length); source: E. coli strain Rosetta BL21DE3, purified
Take B1: the binding result is listed as “binds”.

B2: GST-SHARPIN^L276A (natural protein, UniProt Q9H0F6 1-387, looked up)
chain: MAPPAGGAAAAASDLGSAAVLLAVHAAVRPLGAGPDAEAQLRRLQLSADPERPGRFRLELLGAGPGAVNLEWPLESVSYTIRGPTQHELQPPPGGPGTLSLHFLNPQEAQRWAVLVRGATVEGQNGSKSNSPPALGPEACPVSLPSPPEASTLKGPPPEADLPRSPGNLTEREELAGSLARAIAGGDEKGAAQVAAVLAQHRVALSVQLQEACFPPGPIRLQVTLEDAASAASAASSAHVALQVHPHCTVAALQEQVFSELGFPPAVQRWVIGRCACVPERSLASYGVRQDGDPAFLYLLSAPREAPATGPSPQHPQKMDGELGRLFPPSLGLPPGPQPAASSLPSPLQPSWSCPSCTFINAPDRPGCEMCSTQRPCTWDPLAAAST
notes: source: E. coli strain Rosetta BL21DE3, purified
On to B2, for which the binding result was “binds”.
